From patent US20020045192A1 (ST JUDE CHILDREN S RESEARCH HOSPITAL, published 2002)

T1: His-tagged mArfN37 (N-terminal 37 amino acids of mouse p19Arf with poly-His tag) (mouse)
T1 construct: Captured on the SPR chip by a covalently linked anti-His antibody; Tag placed first here; also called His-mArfN37; His-tagged mArf37
T1 chain: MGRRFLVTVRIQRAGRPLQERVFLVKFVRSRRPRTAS


Target: T1, His-tagged mArfN37 (N-terminal 37 amino …)
Assay: SPR, His-tagged mArfN37 captured by anti-His antibody, peptide injected, signal minus reference cell [c]
Method: (§1) Binding studies were performed using a Biacore 3000 surface plasmon resonance (SPR) instrument (Biacore, Inc.). A Tetra-His™ Antibody (Qiagen, Inc.; Cat. #34670) was covalently attached to a carboxymethylated gold surface (C-1 chip; Biacore, Inc.). The carboxymethyl groups on the surface were activated with N-ethyl-N′-(3-dimethylaminopropyl) carbodiimide (EDC) and N-hydroxysuccinimide (NHS) and the antibody was attached at pH 7.4 in 20 mM sodium phosphate buffer, 150 mM NaCl (PBS). Reactive sites remaining on the surface were blocked by reaction with ethanolamine. The His-tagged ligand was attached to the antibody by injecting a 5-10 μg/ml solution of the ligand in 10 mM HEPES, 150 mM NaCl, pH 7.4 (HBS-N buffer, Biacore) at a flow rate of 10 μL/min through the flow cell. A reference cell was prepared similarly except that no His-tagged ligand was added. Binding was measured by flowing the non-His-tagged analyte through the reference and ligand-containing flow cells in sequence. Prior to injection of ligands, the chip surfaces were equilibrated in HBS-N buffer. Changes in the SPR response due to solvent differences and the injection process were monitored by injection of HBS-N buffer alone. Regeneration of the chip surface to remove bound analyte and ligand was accomplished by two 100 μL injections of 10 mM glycine, pH 2.0 through both flow cells. Data reported is the difference in SPR signal between the flow cell containing analyte and the reference cell. Duplicate injections were made and the SPR response values reported are the average of these two injections.
A similar approach using short synthetic peptides and SPR was used to map the segments of Hdm2 that bind mArfN37 (FIG. 5c). […] The first of these as Arf-binding segment is termed “H1” and the second is termed segment “H2”.

binding result	Binder
no binding	Ac-STGTPSNPDLDAGVS-NH2 (also called Hdm2 library peptide, residues 215-229) [215-229 (Hdm2 peptide)]
binds	Ac-EVESLDSEDYSLSEE-NH2 [250-264 (Hdm2 peptide)]
no binding	Ac-DSEDYSLSEEGQELS-NH2 [255-269 (Hdm2 peptide)]
binds	Ac-SVSDQFSVEFEVESL-NH2 (member of the group m17; also called Hdm2 library peptide, residues 240-254; H1 segment peptide) [240-254 (Hdm2 peptide)]
binds	Ac-FSVEFEVESLDSEDY-NH2 (member of the group m17; also called H1 segment peptide) [245-259 (Hdm2 peptide)]
no binding	Ac-LPEDKGKDKGEISEK-NH2 (also called Hdm2 library peptide, residues 330-344) [330-344 (Hdm2 peptide)]
no binding	Ac-EMNPPLPSHCNRCWA-NH2 (cysteine pairing not given here, also called Hdm2 library peptide, residues 310-324) [310-324 (Hdm2 peptide)]
no binding	Ac-SNPDLDAGVSEHSGD-NH2 (also called Hdm2 library peptide, residues 220-234) [220-234 (Hdm2 peptide)]
no binding	Ac-EHSGDWLDQDSVSDQ-NH2 (also called Hdm2 library peptide, residues 230-244) [230-244 (Hdm2 peptide)]
no binding	Ac-PEISLADYWKCTSCN-NH2 (cysteine pairing not given here, also called Hdm2 library peptide, residues 295-309) [295-309 (Hdm2 peptide)]
no binding	Ac-GQELSDEDDEVYQVT-NH2 (also called Hdm2 library peptide, residues 265-279) [265-279 (Hdm2 peptide)]
no binding	Ac-NRCWALRENWLPEDK-NH2 (also called Hdm2 library peptide, residues 320-334) [320-334 (Hdm2 peptide)]
no binding	Ac-GKDKGEISEKAKLEN-NH2 (also called Hdm2 library peptide, residues 335-349) [335-349 (Hdm2 peptide)]
no binding	Ac-ADYWKCTSCNEMNPP-NH2 (cysteine pairing not given here, also called Hdm2 library peptide, residues 300-314) [300-314 (Hdm2 peptide)]
no binding	Ac-SSSSESTGTPSNPDL-NH2 (also called Hdm2 library peptide, residues 210-224) [210-224 (Hdm2 peptide)]
no binding	Ac-LPSHCNRCWALRENW-NH2 (cysteine pairing not given here) [315-329 (Hdm2 peptide)]
no binding	Ac-ESDTDSFEEDPEISL-NH2 (also called Hdm2 library peptide, residues 285-299) [285-299 (Hdm2 peptide)]
binds	Ac-SFEEDPEISLADYWK-NH2 [Hdm2 peptide, residues 290-304 of SEQ ID NO:8]
no binding	Ac-VYQAGESDTDSFEED-NH2 (also called Hdm2 library peptide, residues 280-294) [280-294 (Hdm2 peptide)]
binds	Ac-WLDQDSVSDQFSVEF-NH2 (member of the group m17; also called H1 segment peptide) [235-249 (Hdm2 peptide)]
binds	Ac-DEDDEVYQVTVYQAG-NH2 (also called Hdm2 library peptide, residues 270-284) [270-284 (Hdm2 peptide)]
no binding	Ac-LRENWLPEDKGKDKG-NH2 (also called Hdm2 library peptide, residues 325-339) [325-339 (Hdm2 peptide)]
no binding	Ac-SLSEEGQELSDEDDE-NH2 (also called Hdm2 library peptide, residues 260-274) [260-274 (Hdm2 peptide)]

Target: T2, His-tagged Hdm2 210-304 (human, UniProt Q00987 210-304)
T2 construct: Captured on the C-1 chip by anti-His antibody for the Arf peptide library SPR; Tag placed first here
Assay: SPR, His-tagged Hdm2 210-304 captured by anti-His antibody, peptide injected 10 min, signal minus reference cell [b]
Method: as §1, with “Reactive” for “Binding studies were performed using a Biacore 3000 surface plasmon resonance (SPR) instrument (Biacore, Inc.). A Tetra-His™ Antibody (Qiagen, Inc.; Cat. #34670) was covalently attached to a carboxymethylated gold surface (C-1 chip; Biacore, Inc.). The carboxymethyl groups on the surface were activated with N-ethyl-N′-(3-dimethylaminopropyl) carbodiimide (EDC) and N-hydroxysuccinimide (NHS) and the antibody was attached at pH 7.4 in 20 mM sodium phosphate buffer, 150 mM NaCl (PBS). Reactive”
Two libraries of peptides 15 amino acids in length were synthesized based on the sequence of exon 1β of mouse p19^Arf and the entire sequence of human p14^Arf. The sequence for the first peptide in each library corresponded to the first 15 amino acids of the protein sequences. […] This approach yielded two libraries of overlapping peptides spanning mouse p19^Arf residues 1-64 and human p14^Arf residues 1-132. The ability of these peptides to bind Hdm2 fragments was determined using the surface plasmon resonance (SPR) technique with a Biacore 3000 instrument. […] Library peptides were allowed to flow over the Hdm2 surface, or over a control surface lacking an Hdm2 fragment.

T2 sequence (Q00987 210-304): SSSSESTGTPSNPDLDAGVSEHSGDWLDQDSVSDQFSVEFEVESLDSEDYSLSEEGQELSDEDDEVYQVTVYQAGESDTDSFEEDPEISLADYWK

Binder	binding result
Ac-GQQPLPRRPGHDDGQ-NH2 (also called human p14Arf library peptide, residues 56-70) [56-70 (human Arf peptide)]	no binding
Ac-IRRACGPPRVRVFVV-NH2 (also called third peptide of the human library) [human p14Arf library peptide, residues 11-25]	binds
Ac-MVRRFLVTLRIRRAC-NH2 (also called first peptide of the human library) [human p14Arf library peptide, residues 1-15]	binds
Ac-LVTLRIRRACGPPRV-NH2 (also called second peptide of the human library) [human p14Arf library peptide, residues 6-20]	binds
Ac-LRRPRHSHPTRARRC-NH2 [human p14Arf library peptide, residues 86-100 (contains the NoLS RRPR)]	binds

Results, then the binder that gave them:

binding result	Binder
no binding	Ac-GAAGRARCLGPSARG-NH2 (also called human p14Arf library peptide, residues 116-130) [116-130 (human Arf peptide)]
no binding	Ac-RRGAQLRRPRHSHPT-NH2 (also called human p14Arf library peptide, residues 81-95) [81-95 (human Arf peptide)]
no binding	Ac-AAAAPRRGAQLRRPR-NH2 (also called human p14Arf library peptide, residues 76-90) [76-90 (human Arf peptide)]
no binding	Ac-TGEWAAPGAPAAVAL-NH2 (also called human p14Arf library peptide, residues 31-45) [31-45 (human Arf peptide)]
no binding	Ac-RSQRLGQQPLPRRPG-NH2 (also called human p14Arf library peptide, residues 51-65) [51-65 (human Arf peptide)]
no binding	Ac-GHAGGAAPGRGAAGR-NH2 (also called human p14Arf library peptide, residues 106-120) [106-120 (human Arf peptide)]
no binding	Ac-HSHPTRARRCPGGLP-NH2 (also called human p14Arf library peptide, residues 91-105) [91-105 (human Arf peptide)]
no binding	Ac-HDDGQRPSGGAAAAP-NH2 (also called human p14Arf library peptide, residues 66-80) [66-80 (human Arf peptide)]
no binding	Ac-HIPRLTGEWAAPGAP-NH2 (also called human p14Arf library peptide, residues 26-40) [26-40 (human Arf peptide)]
no binding	Ac-RPSGGAAAAPRRGAQ-NH2 (also called human p14Arf library peptide, residues 71-85) [71-85 (human Arf peptide)]
no binding	Ac-PGGLPGHAGGAAPGR-NH2 (also called human p14Arf library peptide, residues 101-115) [101-115 (human Arf peptide)]
no binding	Ac-RARRCPGGLPGHAGG-NH2 (also called human p14Arf library peptide, residues 96-110) [96-110 (human Arf peptide)]
no binding	Ac-AAVALVLMLLRSQRL-NH2 (also called human p14Arf library peptide, residues 41-55) [41-55 (human Arf peptide)]
no binding	Ac-PRRPGHDDGQRPSGG-NH2 (also called human p14Arf library peptide, residues 61-75) [61-75 (human Arf peptide)]
no binding	Ac-RVFVVHIPRLTGEWA-NH2 (also called human p14Arf library peptide, residues 21-35) [21-35 (human Arf peptide)]
no binding	Ac-VLMLLRSQRLGQQPL-NH2 (also called human p14Arf library peptide, residues 46-60) [46-60 (human Arf peptide)]
no binding	Ac-AAPGRGAAGRARCLG-NH2 (also called human p14Arf library peptide, residues 111-125) [111-125 (human Arf peptide)]
